# Measured values: patent publication US20220406376A1 (MacroGenics, published 2022)
# B1: DART-6 (bispecific antibody, human IgG1, kappa, L234A L235A)
# heavy: QVTLRESGPALVKPTQTLTLTCTFSGFSLSTSGMSVGWIRQPPGKALEWLADIWWDDKKDYNPSLKSRLTISKDTSKNQVVLKVTNMDPADTATYYCARSMITNWYFDVWGAGTTVTVSSASTKGPSVFPLAPSSKSTSGGTAALGCLVKDYFPEPVTVSWNSGALTSGVHTFPAVLQSSGLYSLSSVVTVPSSSLGTQTYICNVNHKPSNTKVDKRVEPKSCDKTHTCPPCPAPEAAGGPSVFLFPPKPKDTLMISRTPEVTCVVVDVSHEDPEVKFNWYVDGVEVHNAKTKPREEQYNSTYRVVSVLTVLHQDWLNGKEYKCKVSNKALPAPIEKTISKAKGQPREPQVYTLPPSREEMTKNQVSLSCAVKGFYPSDIAVEWESNGQPENNYKTTPPVLDSDGSFFLVSKLTVDKSRWQQGNVFSCSVMHEALHNRYTQKSLSLSPGK
# light: DIQMTQSPSTLSASVGDRVTITCRASQSVGYMHWYQQKPGKAPKLLIYDTSKLASGVPSRFSGSGSGTEFTLTISSLQPDDFATYYCFQGSGYPFTFGGGTKLEIKRTVAAPSVFIFPPSDEQLKSGTASVVCLLNNFYPREAKVQWKVDNALQSGNSQESVTEQDSKDSTYSLSSTLTLSKADYEKHKVYACEVTHQGLSSPVTKSFNRGEC
# chain 1: QVTLRESGPALVKPTQTLTLTCTFSGFSLSTSGMSVGWIRQPPGKALEWLADIWWDDKKDYNPSLKSRLTISKDTSKNQVVLKVTNMDPADTATYYCARSMITNWYFDVWGAGTTVTVSSASTKGPSVFPLAPSSKSTSGGTAALGCLVKDYFPEPVTVSWNSGALTSGVHTFPAVLQSSGLYSLSSVVTVPSSSLGTQTYICNVNHKPSNTKVDKRVEPKSCDKTHTCPPCPAPEAAGGPSVFLFPPKPKDTLMISRTPEVTCVVVDVSHEDPEVKFNWYVDGVEVHNAKTKPREEQYNSTYRVVSVLTVLHQDWLNGKEYKCKVSNKALPAPIEKTISKAKGQPREPQVYTLPPSREEMTKNQVSLWCLVKGFYPSDIAVEWESNGQPENNYKTTPPVLDSDGSFFLYSKLTVDKSRWQQGNVFSCSVMHEALHNHYTQKSLSLSPGGGGSGGGSGGGDIQMTQTTSSLSASLGDRVTISCRPSQDISNYLNWYQQKPDGTVKLLIYYTSRLRSGVPSRFSGSGSGTDYSLTISNLEQEDIATYFCQQGDTLPYTFGGGTKLEIKGGGSGGGGQVQLQQPGAELVRPGASVKLSCKASGYTFTSYWINWVKQRPGQGLEWIGNIYPSDSYTNYNQKFKDKATLTVDKSSSTAYMQLSSPTSEDSAVYYCTRDYGSSYSFDYWGQGTTLTVSSGGCGGGEVAALEKEVAALEKEVAALEKEVAALEK
# chain 2: DIQMTQTTSSLSASLGDRVTISCRPSQDISNYLNWYQQKPDGTVKLLIYYTSRLRSGVPSRFSGSGSGTDYSLTISNLEQEDIATYFCQQGDTLPYTFGGGTKLEIKGGGSGGGGQVQLQQPGAELVRPGASVKLSCKASGYTFTSYWINWVKQRPGQGLEWIGNIYPSDSYTNYNQKFKDKATLTVDKSSSTAYMQLSSPTSEDSAVYYCTRDYGSSYSFDYWGQGTTLTVSSGGCGGGKVAALKEKVAALKEKVAALKEKVAALKE
# notes: also called RSV×CD137 control molecule; CD137×RSV control molecule
# B2: DART-3 (bispecific antibody)
# chain 1: not shown
# chain 2: DIQMTQSPSTLSASVGDRVTITCRASQSVGYMHWYQQKPGKAPKLLIYDTSKLASGVPSRFSGSGSGTEFTLTISSLQPDDFATYYCFQGSGYPFTFGGGTKLEIKGGGSGGGGQVQLVQSGAEVKKPGASVKVSCKASGYTFTNYGMNWVRQAPGQGLEWMGWINTNIGEPTYTEEFKGRVTMTRDTSISTAYMELSRLRSDDTAVYYCARDDGYGNRVSYWGQGTLVTVSSGGCGGGKVAACKEKVAALKEKVAALKEKVAALKE
# notes: also called HER2×RSV control molecule; HER2/neu×RSV control molecule
# How the values were obtained:
# [1] = molecular target: T1, CD137 on the surface of cells (activated human T cells; engineered CHO cells) (human, UniProt Q07011 24-255); experiment: flow cytometry on activated CD8+ T cells (donor D53781, CD8 FITC), anti-hFc APC MFI
# T1 construct: whole, on cells; also called human CD137; cell surface expressed CD137
# T1 sequence (Q07011 24-255, change not shown): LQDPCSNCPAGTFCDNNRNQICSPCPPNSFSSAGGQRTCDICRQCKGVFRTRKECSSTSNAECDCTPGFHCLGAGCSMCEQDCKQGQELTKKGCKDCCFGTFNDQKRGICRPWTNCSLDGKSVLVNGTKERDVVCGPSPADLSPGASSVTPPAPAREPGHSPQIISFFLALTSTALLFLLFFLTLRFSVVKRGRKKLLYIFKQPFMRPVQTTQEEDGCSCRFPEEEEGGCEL
# [2] = molecular target: T1, CD137 on the surface of cells …; experiment: flow cytometry on activated pan T cells gated CD8, anti-hFc APC MFI
# [3] = molecular target: T1, CD137 on the surface of cells …; experiment: as above; remark: listed apart in the source
# [4] = molecular target: T2, HER2/neu on the surface of target cells (N87, JIMT-1, MCF-7, MDA-MB231) (UniProt P04626 23-1255, limits assumed); experiment: flow cytometry on N87 gastric cancer cells, anti-hFc APC MFI
# T2 construct: whole, on cells
# [5] = molecular target: T1, CD137 on the surface of cells …; experiment: flow cytometry on activated CD8+ T cells (CD8 FITC), anti-hFc APC MFI
# [6] = molecular target: T1, CD137 on the surface of cells …; experiment: flow cytometry on CD137-expressing CHO cells (CHO/137), anti-hFc APC MFI
# [7] = molecular target: T1, CD137 on the surface of cells …; experiment: as above; remark: listed apart in the source
# [8] = molecular target: T2, HER2/neu on the surface of target cells …; experiment: flow cytometry on N87 cells, anti-hFc APC MFI
# Description: (§1) CD137×TA Binding Molecules, DART-B, DART-D, DART-G and the control molecules DART-3 and DART-6 were additionally evaluated for their ability to bind to HER2/neu expressed on N87 cells (FIG. 13A) and JIMT-1 cells (FIG. 13B). For such evaluation, 100 μL of HER2/neu expressing target cells (1.0×1⁰⁶ cells/mL) and 100 μL of serially diluted (5- or 10-fold dilutions) test article (bispecific diabody) were added to each well of microtiter assay plate(s), mixed and incubated at RT for 45 min. The cells were washed with FACS Buffer and secondary antibody (anti-human-Fc region-APC) was then added to each well; mixed and incubated at RT for 30 min. Cells were washed and resuspended in 100 μL FACS Buffer and analyzed by flow cytometry (BD LSR Fortessa or FACSCanto 11) for cell event collection. Data analysis were performed via FloJo v10.
# [9] = molecular target: T2, HER2/neu on the surface of target cells …; experiment: flow cytometry on JIMT-1 cells, anti-hFc APC MFI
# Description: as §1
Binder,EC50 (read off the curve) [1] [µg/mL],EC50 (read off the curve) [2] [nM],EC50 (read off the curve) [3] [nM],binding result [4],EC50 (read off the curve) [5] [µg/mL],EC50 (read off the curve) [6] [µg/mL],EC50 (read off the curve) [7] [µg/mL],EC50 (read off the curve) [8] [µg/mL],binding result [2],EC50 (read off the curve) [9] [µg/mL],EC50 (read off the curve) [4] [nM]
B1,~0.02,~0.2,~0.1,no binding,~0.02,~0.02,~0.02,–,–,–,–
B2,–,–,–,–,–,–,–,~0.05,no binding,~0.03,~0.5
